In paper PMC3776556, “Crystal structures of the CPAP/STIL complex reveal its role in centriole assembly and human microcephaly” (eLife, 2013):

System: SAS-5 N-terminal domain (aa 1–202)
Experiment: Ni-NTA pull-down of 35S-labelled SAS-4 fragments by SAS-5
Type: binding, C. elegans
Conditions: 25 mM HEPES, 100 mM NaCl, pH 7.4, 4°C, 30 min; SAS-5-6xHis bait on Ni-NTA
Procedure: SAS-4 constructs were cloned into a pET21a vector for in vitro transcription/translation. Proteins were expressed using the T7 TNT Quick Coupled Transcription/Translation System (Promega, Fitchburg, WI) with ^35S-Met labelling.
SAS-5 fragments were cloned into a pRSET-A vector with a C-terminal 6xHis tag. Proteins were expressed in E. coli Rosetta2(DE3) cells and purified on Ni-NTA agarose (Qiagen) using standard protocols. For pull-down experiments, proteins were dialysed into 25 mM HEPES, 100 mM NaCl, 20 mM imidazole, 1 mM DTT, 10% sucrose, 0.02% Tween-20, pH 7.4.
SAS-5 fragments were pre-incubated with 20 μl Ni-NTA beads for 45 min at 4°C. 10 μl of the SAS-4 IVTT product was added to the beads with 190 μl buffer and incubated at 4°C for 30 min. The beads were washed with 3 × 200 μl buffer and resuspended in 100 μl SDS-PAGE sample buffer. Samples were run on 10% SDS-PAGE gels and either stained with Coomassie or dried and exposed to a phosphor screen overnight. Phosphor screens were analysed on a Personal Molecular Imager System (Bio-Rad, Hercules, CA).

B1: full-length SAS-4: in vitro translated full-length C. elegans SAS-4, 35S-labelled (protein)
chain: MASDENIGADGEQKPSRPFLRKGQGTARFRMPRNNKTSAGAPPTSELSSASSPSINVPRFSLSNALPNSARTVDSGISNEDETRPPTTASLPMDQPSLSSSPENRLNPAPSVAEEHGHSGQHAEEEEDNDTDEVSAMPSFVPDEPSTLVNSDHELSDDALKYKNAAAEFKAFERRMDSMRSASTITTSLATPSSCAPSNSSEPPTRSTPIMNDLGVGPNNHNWPSSMQELSGISLETPQARPLGSNRINQLVRSEAQTGISLLQHHERPTVTAPLRRNDMMNSSRQNPQNGNVQDENRPEHVYDQPIHVPGSSLDRQKLEIEIRRHRNLNIQLRDTIAHLDYAEESVHTTKRQLEEKISEVNNFKKELIEEFKKCKKGVEEEFEKKFEKIKEDYDELYEKLKRDQRDLERDQKILKKGTGERNKEFTETIATLRDKLRASETKNAQYRQDIRVRDEKLKKKDEEIEKLQKDGNRLKSTLQTLEKRVKQLRTEKERDDKEKEMFAKVAMNRKTSNPVPPVLNQSVPISITSNGPSRHPSSSSLTTFRKPSTSNRERGVSWADEPNEQSLEAVPQEFLMMPVKEMPGKFGKCTIYRDSLGETSKVTDTIANGLLFEYSNGDLRWVNRQNAVNIYISAVDKTVRIDLPTYNISIIHTFQRQVEVLRPGNNITLISIKRREVRTDLIYQNGMYKTEIFNRDGRYVTKDFSNQEVSRKYNPGTHTYRDNQCRYVLVTDYNDFELVEPEFRLRWYQGDPTGLNNQYILKIIGRPECSEKTLRLEVNLSTCEGTLETAEMIGDKRRKTTLFQWKK
modifications: ^35S-Met labelling
- interaction with SAS-5 in pull-down: interacted specifically with the N-terminal domain (aa 1–202) of SAS-5
